What was measured:
[1] = biological target: H3N2 representative viral strain (hemagglutinin), Example 6; experiment: cell-based or functional assay
[2] = biological target: H1N1 representative viral strain (hemagglutinin), Example 6; experiment: cell-based or functional assay

B1: FluAB_MLNS (antibody)
heavy: not shown
light: DIQMTQSPSSLSASVGDRVTITCRTSQSLSSYTHWYQQKPGKAPKLLIYAASSRGSGVPSRFSGSGSGTDFTLTISSLQPEDFATYYCQQSRTFGQGTKVEIKRTVAAPSVFIFPPSDEQLKSGTASVVCLLNNFYPREAKVQWKVDNALQSGNSQESVTEQDSKDSTYSLSSTLTLSKADYEKHKVYACEVTHQGLSSPVTKSFNRGEC
IC50 of in vitro neutralization (MDCK cells, neuraminidase activity read-out) [1]: 17.9 nM | IC50 of in vitro neutralization (MDCK cells, neuraminidase activity read-out) [2]: 15.6 nM

Reference: patent US20220306728A1 (VIR BIOTECHNOLOGY, published 2022)
